Data published in patent US7256012B2, “Fluorogenic protease substrates based on dye-dimerization” (3M Innovative Properties Company, priority 1997, dated 2007).

Target: T1, trypsin (Bos taurus, UniProt P00760)
T1 construct: gene PRSS1
T1 sequence (P00760 24-246): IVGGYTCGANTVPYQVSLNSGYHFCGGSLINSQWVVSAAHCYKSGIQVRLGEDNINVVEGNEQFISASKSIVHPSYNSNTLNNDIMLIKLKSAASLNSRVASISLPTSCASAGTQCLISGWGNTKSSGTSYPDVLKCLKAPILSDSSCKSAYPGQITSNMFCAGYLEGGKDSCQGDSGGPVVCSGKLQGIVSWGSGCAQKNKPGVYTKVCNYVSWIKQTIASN
Assay: Hydrolysis of fluorogenic protease substrate by purified enzyme (trypsin), fluorescence intensity
Format: biochemical
Conditions: for Average ratio w/ trypsin to w/o trypsin: average over emission 570-585 nm
Procedure: Enzymatic hydrolysis of the substrate from Example 1 was carried out in 50 mM carbonate buffer, pH 8.9 at room temperature. Fluorescence intensity of the solution prior to treatment with trypsin and after treatment with trypsin is shown in Table 1, for excitation wavelengths of 360 nm, 522 nm, 530 nm, and 553 nm, respectively. […] This is a characteristic of dye dimerization or stacking, as described above. […] Both the fluorescence and absorption results provided convincing evidence that ground-state interactions existed between dye molecules in the conjugate and became diminished after enzymatic cleavage.

[1] = Excitation 360 nm, emission 570 nm
[2] = Excitation 360 nm, emission 571 nm
[3] = Excitation 360 nm, emission 572 nm
[4] = Excitation 360 nm, emission 573 nm
[5] = Excitation 360 nm, emission 574 nm
[6] = Excitation 360 nm, emission 575 nm
[7] = Excitation 360 nm, emission 576 nm
[8] = Excitation 360 nm, emission 577 nm
[9] = Excitation 360 nm, emission 578 nm
[10] = Excitation 360 nm, emission 579 nm
[11] = Excitation 360 nm, emission 580 nm
[12] = Excitation 360 nm, emission 581 nm
[13] = Excitation 360 nm, emission 582 nm
[14] = Excitation 360 nm, emission 583 nm
[15] = Excitation 360 nm, emission 584 nm
[16] = Excitation 360 nm, emission 585 nm
[17] = Excitation 522 nm, emission 570 nm
[18] = Excitation 522 nm, emission 571 nm
[19] = Excitation 522 nm, emission 572 nm
[20] = Excitation 522 nm, emission 573 nm
[21] = Excitation 522 nm, emission 574 nm
[22] = Excitation 522 nm, emission 575 nm
[23] = Excitation 522 nm, emission 576 nm
[24] = Excitation 522 nm, emission 577 nm
[25] = Excitation 522 nm, emission 578 nm
[26] = Excitation 522 nm, emission 579 nm
[27] = Excitation 522 nm, emission 580 nm
[28] = Excitation 522 nm, emission 581 nm
[29] = Excitation 522 nm, emission 582 nm
[30] = Excitation 522 nm, emission 583 nm
[31] = Excitation 522 nm, emission 584 nm
[32] = Excitation 522 nm, emission 585 nm
[33] = Excitation 530 nm, emission 570 nm
[34] = Excitation 530 nm, emission 571 nm
[35] = Excitation 530 nm, emission 572 nm
[36] = Excitation 530 nm, emission 573 nm
[37] = Excitation 530 nm, emission 574 nm
[38] = Excitation 530 nm, emission 575 nm
[39] = Excitation 530 nm, emission 576 nm
[40] = Excitation 530 nm, emission 577 nm
[41] = Excitation 530 nm, emission 578 nm
[42] = Excitation 530 nm, emission 579 nm
[43] = Excitation 530 nm, emission 580 nm
[44] = Excitation 530 nm, emission 581 nm
[45] = Excitation 530 nm, emission 582 nm
[46] = Excitation 530 nm, emission 583 nm
[47] = Excitation 530 nm, emission 584 nm
[48] = Excitation 530 nm, emission 585 nm
[49] = Excitation 553 nm, emission 570 nm
[50] = Excitation 553 nm, emission 571 nm
[51] = Excitation 553 nm, emission 572 nm
[52] = Excitation 553 nm, emission 573 nm
[53] = Excitation 553 nm, emission 574 nm
[54] = Excitation 553 nm, emission 575 nm
[55] = Excitation 553 nm, emission 576 nm
[56] = Excitation 553 nm, emission 577 nm
[57] = Excitation 553 nm, emission 578 nm
[58] = Excitation 553 nm, emission 579 nm
[59] = Excitation 553 nm, emission 580 nm
[60] = Excitation 553 nm, emission 581 nm
[61] = Excitation 553 nm, emission 582 nm
[62] = Excitation 553 nm, emission 583 nm
[63] = Excitation 553 nm, emission 584 nm
[64] = Excitation 553 nm, emission 585 nm

TMR-Val-Pro-Arg-Gly-Lys-TMR (XPRGX; not fully specified; TMR dye at both ends) [T-VPRGK-T]
Average ratio w/ trypsin to w/o trypsin (Excitation 360 nm): 26
Fluorescence intensity w/ trypsin [1]: 8625
Fluorescence intensity w/o trypsin [1]: 319
ratio w/ trypsin to w/o trypsin [1]: 27
Fluorescence intensity w/ trypsin [2]: 8817
Fluorescence intensity w/o trypsin [2]: 347
ratio w/ trypsin to w/o trypsin [2]: 25
Fluorescence intensity w/ trypsin [3]: 9322
Fluorescence intensity w/o trypsin [3]: 369
ratio w/ trypsin to w/o trypsin [3]: 25
Fluorescence intensity w/ trypsin [4]: 9189
Fluorescence intensity w/o trypsin [4]: 365
ratio w/ trypsin to w/o trypsin [4]: 25
Fluorescence intensity w/ trypsin [5]: 9629
Fluorescence intensity w/o trypsin [5]: 354
ratio w/ trypsin to w/o trypsin [5]: 27
Fluorescence intensity w/ trypsin [6]: 9719
Fluorescence intensity w/o trypsin [6]: 410
ratio w/ trypsin to w/o trypsin [6]: 24
Fluorescence intensity w/ trypsin [7]: 9759
Fluorescence intensity w/o trypsin [7]: 401
ratio w/ trypsin to w/o trypsin [7]: 24
Fluorescence intensity w/ trypsin [8]: 9776
Fluorescence intensity w/o trypsin [8]: 378
ratio w/ trypsin to w/o trypsin [8]: 26
Fluorescence intensity w/ trypsin [9]: 9981
Fluorescence intensity w/o trypsin [9]: 379
ratio w/ trypsin to w/o trypsin [9]: 26
Fluorescence intensity w/ trypsin [10]: 9872
Fluorescence intensity w/o trypsin [10]: 392
ratio w/ trypsin to w/o trypsin [10]: 25
Fluorescence intensity w/ trypsin [11]: 9788
Fluorescence intensity w/o trypsin [11]: 361
ratio w/ trypsin to w/o trypsin [11]: 27
Fluorescence intensity w/ trypsin [12]: 9960
Fluorescence intensity w/o trypsin [12]: 375
ratio w/ trypsin to w/o trypsin [12]: 27
Fluorescence intensity w/ trypsin [13]: 9783
Fluorescence intensity w/o trypsin [13]: 376
ratio w/ trypsin to w/o trypsin [13]: 26
Fluorescence intensity w/ trypsin [14]: 9591
Fluorescence intensity w/o trypsin [14]: 347
ratio w/ trypsin to w/o trypsin [14]: 28
Fluorescence intensity w/ trypsin [15]: 9387
Fluorescence intensity w/o trypsin [15]: 385
ratio w/ trypsin to w/o trypsin [15]: 24
Fluorescence intensity w/ trypsin [16]: 9427
Fluorescence intensity w/o trypsin [16]: 353
ratio w/ trypsin to w/o trypsin [16]: 27
Average ratio w/ trypsin to w/o trypsin (Excitation 522 nm): 28
Fluorescence intensity w/ trypsin [17]: 40193
Fluorescence intensity w/o trypsin [17]: 1378
ratio w/ trypsin to w/o trypsin [17]: 29
Fluorescence intensity w/ trypsin [18]: 41416
Fluorescence intensity w/o trypsin [18]: 1525
ratio w/ trypsin to w/o trypsin [18]: 27
Fluorescence intensity w/ trypsin [19]: 42506
Fluorescence intensity w/o trypsin [19]: 1480
ratio w/ trypsin to w/o trypsin [19]: 29
Fluorescence intensity w/ trypsin [20]: 43406
Fluorescence intensity w/o trypsin [20]: 1509
ratio w/ trypsin to w/o trypsin [20]: 29
Fluorescence intensity w/ trypsin [21]: 44241
Fluorescence intensity w/o trypsin [21]: 1645
ratio w/ trypsin to w/o trypsin [21]: 27
Fluorescence intensity w/ trypsin [22]: 45037
Fluorescence intensity w/o trypsin [22]: 1643
ratio w/ trypsin to w/o trypsin [22]: 27
Fluorescence intensity w/ trypsin [23]: 45519
Fluorescence intensity w/o trypsin [23]: 1587
ratio w/ trypsin to w/o trypsin [23]: 29
Fluorescence intensity w/ trypsin [24]: 45648
Fluorescence intensity w/o trypsin [24]: 1672
ratio w/ trypsin to w/o trypsin [24]: 27
Fluorescence intensity w/ trypsin [25]: 45980
Fluorescence intensity w/o trypsin [25]: 1629
ratio w/ trypsin to w/o trypsin [25]: 28
Fluorescence intensity w/ trypsin [26]: 45745
Fluorescence intensity w/o trypsin [26]: 1673
ratio w/ trypsin to w/o trypsin [26]: 27
Fluorescence intensity w/ trypsin [27]: 45757
Fluorescence intensity w/o trypsin [27]: 1595
ratio w/ trypsin to w/o trypsin [27]: 29
Fluorescence intensity w/ trypsin [28]: 44936
Fluorescence intensity w/o trypsin [28]: 1665
ratio w/ trypsin to w/o trypsin [28]: 27
Fluorescence intensity w/ trypsin [29]: 44724
Fluorescence intensity w/o trypsin [29]: 1567
ratio w/ trypsin to w/o trypsin [29]: 29
Fluorescence intensity w/ trypsin [30]: 44076
Fluorescence intensity w/o trypsin [30]: 1599
ratio w/ trypsin to w/o trypsin [30]: 28
Fluorescence intensity w/ trypsin [31]: 43282
Fluorescence intensity w/o trypsin [31]: 1601
ratio w/ trypsin to w/o trypsin [31]: 27
Fluorescence intensity w/ trypsin [32]: 42928
Fluorescence intensity w/o trypsin [32]: 1527
ratio w/ trypsin to w/o trypsin [32]: 28
Average ratio w/ trypsin to w/o trypsin (Excitation 530 nm): 27
Fluorescence intensity w/ trypsin [33]: 46615
Fluorescence intensity w/o trypsin [33]: 1687
ratio w/ trypsin to w/o trypsin [33]: 28
Fluorescence intensity w/ trypsin [34]: 48314
Fluorescence intensity w/o trypsin [34]: 1718
ratio w/ trypsin to w/o trypsin [34]: 28
Fluorescence intensity w/ trypsin [35]: 49955
Fluorescence intensity w/o trypsin [35]: 1819
ratio w/ trypsin to w/o trypsin [35]: 27
Fluorescence intensity w/ trypsin [36]: 50871
Fluorescence intensity w/o trypsin [36]: 1844
ratio w/ trypsin to w/o trypsin [36]: 28
Fluorescence intensity w/ trypsin [37]: 52163
Fluorescence intensity w/o trypsin [37]: 1904
ratio w/ trypsin to w/o trypsin [37]: 27
Fluorescence intensity w/ trypsin [38]: 52681
Fluorescence intensity w/o trypsin [38]: 1895
ratio w/ trypsin to w/o trypsin [38]: 28
Fluorescence intensity w/ trypsin [39]: 52855
Fluorescence intensity w/o trypsin [39]: 1968
ratio w/ trypsin to w/o trypsin [39]: 27
Fluorescence intensity w/ trypsin [40]: 53752
Fluorescence intensity w/o trypsin [40]: 1939
ratio w/ trypsin to w/o trypsin [40]: 28
Fluorescence intensity w/ trypsin [41]: 53611
Fluorescence intensity w/o trypsin [41]: 1970
ratio w/ trypsin to w/o trypsin [41]: 27
Fluorescence intensity w/ trypsin [42]: 53534
Fluorescence intensity w/o trypsin [42]: 2026
ratio w/ trypsin to w/o trypsin [42]: 26
Fluorescence intensity w/ trypsin [43]: 53414
Fluorescence intensity w/o trypsin [43]: 1973
ratio w/ trypsin to w/o trypsin [43]: 27
Fluorescence intensity w/ trypsin [44]: 53190
Fluorescence intensity w/o trypsin [44]: 1985
ratio w/ trypsin to w/o trypsin [44]: 27
Fluorescence intensity w/ trypsin [45]: 52569
Fluorescence intensity w/o trypsin [45]: 1948
ratio w/ trypsin to w/o trypsin [45]: 27
Fluorescence intensity w/ trypsin [46]: 51719
Fluorescence intensity w/o trypsin [46]: 1926
ratio w/ trypsin to w/o trypsin [46]: 27
Fluorescence intensity w/ trypsin [47]: 50705
Fluorescence intensity w/o trypsin [47]: 1905
ratio w/ trypsin to w/o trypsin [47]: 27
Fluorescence intensity w/ trypsin [48]: 49629
Fluorescence intensity w/o trypsin [48]: 1820
ratio w/ trypsin to w/o trypsin [48]: 27
Average ratio w/ trypsin to w/o trypsin (Excitation 553 nm): 25
Fluorescence intensity w/ trypsin [49]: 82385
Fluorescence intensity w/o trypsin [49]: 3301
ratio w/ trypsin to w/o trypsin [49]: 25
Fluorescence intensity w/ trypsin [50]: 85120
Fluorescence intensity w/o trypsin [50]: 3402
ratio w/ trypsin to w/o trypsin [50]: 25
Fluorescence intensity w/ trypsin [51]: 87845
Fluorescence intensity w/o trypsin [51]: 3457
ratio w/ trypsin to w/o trypsin [51]: 25
Fluorescence intensity w/ trypsin [52]: 89719
Fluorescence intensity w/o trypsin [52]: 3658
ratio w/ trypsin to w/o trypsin [52]: 25
Fluorescence intensity w/ trypsin [53]: 91555
Fluorescence intensity w/o trypsin [53]: 3649
ratio w/ trypsin to w/o trypsin [53]: 25
Fluorescence intensity w/ trypsin [54]: 93001
Fluorescence intensity w/o trypsin [54]: 3802
ratio w/ trypsin to w/o trypsin [54]: 24
Fluorescence intensity w/ trypsin [55]: 94046
Fluorescence intensity w/o trypsin [55]: 3827
ratio w/ trypsin to w/o trypsin [55]: 25
Fluorescence intensity w/ trypsin [56]: 94816
Fluorescence intensity w/o trypsin [56]: 3816
ratio w/ trypsin to w/o trypsin [56]: 25
Fluorescence intensity w/ trypsin [57]: 94516
Fluorescence intensity w/o trypsin [57]: 3806
ratio w/ trypsin to w/o trypsin [57]: 25
Fluorescence intensity w/ trypsin [58]: 94662
Fluorescence intensity w/o trypsin [58]: 3962
ratio w/ trypsin to w/o trypsin [58]: 24
Fluorescence intensity w/ trypsin [59]: 93715
Fluorescence intensity w/o trypsin [59]: 3695
ratio w/ trypsin to w/o trypsin [59]: 25
Fluorescence intensity w/ trypsin [60]: 93189
Fluorescence intensity w/o trypsin [60]: 3825
ratio w/ trypsin to w/o trypsin [60]: 24
Fluorescence intensity w/ trypsin [61]: 92281
Fluorescence intensity w/o trypsin [61]: 3736
ratio w/ trypsin to w/o trypsin [61]: 25
Fluorescence intensity w/ trypsin [62]: 91125
Fluorescence intensity w/o trypsin [62]: 3724
ratio w/ trypsin to w/o trypsin [62]: 24
Fluorescence intensity w/ trypsin [63]: 89415
Fluorescence intensity w/o trypsin [63]: 3593
ratio w/ trypsin to w/o trypsin [63]: 25
Fluorescence intensity w/ trypsin [64]: 87910
Fluorescence intensity w/o trypsin [64]: 3449
ratio w/ trypsin to w/o trypsin [64]: 25
fluorescence intensity of the cleaved substrate solution relative to the intact substrate solution (maximum) (excitation 360-553 nm, emission wavelengths from 570 to 585 nm): ≤ 29 times
